# B1: human DPP4 (hDPP4) receptor expressed on 293T cells (receptor)
# chain: MKTPWKVLLGLLGAAALVTIITVPVVLLNKGTDDATADSRKTYTLTDYLKNTYRLKLYSLRWISDHEYLYKQENNILVFNAEYGNSSVFLENSTFDEFGHSINDYSISPDGQFILLEYNYVKQWRHSYTASYDIYDLNKRQLITEERIPNNTQWVTWSPVGHKLAYVWNNDIYVKIEPNLPSYRITWTGKEDIIYNGITDWVYEEEVFSAYSALWWSPNGTFLAYAQFNDTEVPLIEYSFYSDESLQYPKTVRVPYPKAGAVNPTVKFFVVNTDSLSSVTNATSIQITAPASMLIGDHYLCDVTWATQERISLQWLRRIQNYSVMDICDYDESSGRWNCLVARQHIEMSTTGWVGRFRPSEPHFTLDGNSFYKIISNEEGYRHICYFQIDKKDCTFITKGTWEVIGIEALTSDYLYYISNEYKGMPGGRNLYKIQLSDYTKVTCLSCELNPERCQYYSVSFSKEAKYYQLRCSGPGLPLYTLHSSVNDKGLRVLEDNSALDKMLQNVQMPSKKLDFIILNETKFWYQMILPPHFDKSKKYPLLLDVYAGPCSQKADTVFRLNWATYLASTENIIVASFDGRGSGYQGDKIMHAINRRLGTFEVEDQIEAARQFSKMGFVDNKRIAIWGWSYGGYVTSMVLGSGSGVFKCGIAVAPVSRWEYYDSVYTERYMGLPTPEDNLDHYRNSTVMSRAENFKQVEYLLIHGTADDNVHFQQSAQISKALVDVGVDFQAMWYTDEDHGIASSTAHQHIYTHMSHFIKQCFSLP
# notes: whole, on cells
# B2: soluble human DPP4 (sDPP4) receptor (receptor)
# chain: SRKTYTLTDYLKNTYRLKLYSLRWISDHEYLYKQENNILVFNAEYGNSSVFLENSTFDEFGHSINDYSISPDGQFILLEYNYVKQWRHSYTASYDIYDLNKRQLITEERIPNNTQWVTWSPVGHKLAYVWNNDIYVKIEPNLPSYRITWTGKEDIIYNGITDWVYEEEVFSAYSALWWSPNGTFLAYAQFNDTEVPLIEYSFYSDESLQYPKTVRVPYPKAGAVNPTVKFFVVNTDSLSSVTNATSIQITAPASMLIGDHYLCDVTWATQERISLQWLRRIQNYSVMDICDYDESSGRWNCLVARQHIEMSTTGWVGRFRPSEPHFTLDGNSFYKIISNEEGYRHICYFQIDKKDCTFITKGTWEVIGIEALTSDYLYYISNEYKGMPGGRNLYKIQLSDYTKVTCLSCELNPERCQYYSVSFSKEAKYYQLRCSGPGLPLYTLHSSVNDKGLRVLEDNSALDKMLQNVQMPSKKLDFIILNETKFWYQMILPPHFDKSKKYPLLLDVYAGPCSQKADTVFRLNWATYLASTENIIVASFDGRGSGYQGDKIMHAINRRLGTFEVEDQIEAARQFSKMGFVDNKRIAIWGWSYGGYVTSMVLGSGSGVFKCGIAVAPVSRWEYYDSVYTERYMGLPTPEDNLDHYRNSTVMSRAENFKQVEYLLIHGTADDNVHFQQSAQISKALVDVGVDFQAMWYTDEDHGIASSTAHQHIYTHMSHFIKQCFSLP
# notes: also called hDPP4 in solution
# How the values were obtained:
# [1] = target: T1, SARS-CoV-2 RBD-Fc fusion protein (residues 331-524 of SARS-CoV-2 S protein with a C-terminal Fc of human IgG1) (SARS-CoV-2; human); experiment: flow cytometry on hDPP4/293T cells
# T1 construct: also called SARS-CoV-2 RBD protein; SARS-CoV-2 RBD-Fc protein
# [2] = target: T1, SARS-CoV-2 RBD-Fc fusion protein …; experiment: ELISA, RBD-Fc coated at 1 µg/ml, sDPP4 serially diluted
Binder,binding result [1],binding result [2]
B1,no binding (tested: 20 µg/ml),
B2,,no binding
